# Laboratory results published in PMC10273302 (Science (New York, N.Y.), 2023).
# Substitutions are numbered along the chain they refer to.
# T1: EBV minimal peptide PPSTSSKLRPRWTFT (spotted for dot blot) (Human herpesvirus 4 (Epstein-Barr …))
# T1 construct: also called EBV gp350 minimal peptide; 72153; source: "recombinant peptide" spotted on nitrocellulose
# T1 chain: PPSTSSKLRPRWTFT
# T2: influenza A minimal peptide VPNGTLVKTITNDQI (spotted for dot blot) (Influenza A virus (H3 hemagglutinin …))
# T2 chain: VPNGTLVKTITNDQI
# B1: EBV_c124 (antibody, V domains shown)
# VH: QVQLVQSGAEVRKPGASVKVSCKASGYTFNTYFIQWVRQAPGQGLEWMGVINSSGSGTRYAPKFRGRVILTRDTSTSTAFMELSSLTSEDTAVYYCARAAEGDYGDSALDYWGQGTLVSVSS
# VL: SYELTQPHSVSVSPGQTASIACSGEKLDKKYTCWYQQRPGQSPVLVIYQDRKRPSGIPERFSGSNSGNTATLTISGTQAIDEADYYCQVWDSNTVVFGGGTKLTVL
# notes: recombinant human IgG
# B2: EBV_c124 with light chain D51K (antibody, V domains shown)
# VH: B1 VH
# VL: B1 VL with D50K
# notes: source: Expi293 or ExpiCHO, recombinant; filtered culture supernatant
# B3: EBV_c63 (antibody, V domains shown)
# VH: QVQLVQSGAEVKKPGASVKVSCKASGYTFTSYYIHWVRQAPGQGLEWMGIINPSDGTTDYAQRLQGRVTMTRVTSTSTVYMELSSLRSEDTAVYYCARDREQMVRGIIISNGLDVWGQGTTVTVSS
# VL: QSALTQPASVSGSPGQSITFSCTGTSSDVGGYNFVSWYQQHPGKAPKLMIYDVTNRPSGVSNRFSGSKSGNTASLTISGLQAEDEADYYCSSYTSSSTLVFGTGTKVTVL
# notes: recombinant human IgG
# B4: EBV_c9 (antibody, V domains shown)
# VH: QVQLVQSGAEVKKPGASVKISCKASGYNFTNYYMHWVRQAPGQGLEWMGVINPHDNTNYAQKFRGRFIVTKDTSTTTLHMELRGLRSEDTAVYYCARGPDYVGISSPFDYWGQGTLVTVSS
# VL: SHELTQPPSVPVSPGQTARITCSGDGLPKNYAYWYQQKSGQAPVLVIYEDRKRPSGIPERFSGSSSGTMATLTISGAQVEDEADYYCYSGDSNGNHWVFGGGTKLTVL
# notes: recombinant human IgG
# B5: EBV_c61 (antibody, V domains shown)
# VH: B4 VH with I20V, Y33F, I51L, P53S, H54G, D55A, K71R, G84S, Y101S, V102S
# VL: B4 VL with Y31F, Q37K, M69T, V79E, E80D, D84E, S92T
# notes: recombinant human IgG
# B6: EBV_c149 (antibody, V domains shown)
# VH: QVQLVQSGAEVKKPGASVKVSCKASGYNFTNYYMHWVRQAPGQGLEWMGVINPDGGSTSYAQKFRGRFIVTRDTSTTTLHMELRSLRSEDTAVYFCARGPDYVGISSPFDFWGQGTLVTVSS
# VL: B4 VL
# notes: recombinant human IgG
# B7: EBV_c19 (antibody, V domains shown)
# VH: QVQLVQSGAEVKKPGASVKLSCKASGYNFTNYYMHWVRQAPGQGLEWMGVINHGGLTNYAQRFRGRFIVTRDTSTTTLHMELRSLRSEDTAVYYCARGPDYGGNSSPFDNWGQGTLVTVSS
# VL: B4 VL with S92I
# notes: recombinant human IgG
# B8: EBV_c57 (antibody, V domains shown)
# VH: QVQLVQSGAEVKKPGASVKVSCKASGYTFTSYDINWVRQAPGQGLEWLGWMNPNNENTGYAQKFQGRIIMTRNTSIDTVYMELSSLRSEDTAVYYCEAIAAVSATEGAFDIWGQGTMVTVSS
# VL: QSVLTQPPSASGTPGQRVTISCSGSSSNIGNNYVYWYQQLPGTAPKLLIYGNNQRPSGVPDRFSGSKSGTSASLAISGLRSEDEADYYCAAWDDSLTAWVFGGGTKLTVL
# notes: recombinant human IgG
# B9: EBV_c150 (antibody, V domains shown)
# VH: QVLLVQSGAEVRKPGASVKLSCTASGYNFTNYYIHWVRQAPGQGLEWMGILNPTGGGTIYPHNFRGRVTMTRETSTSTAYMELKNLTSDDTAVYYCARVPPDDGYFDYWGQGALVTVSS
# VL: SYEPTQPPSVSVSPGQTARITCSGDALPKRYVYWYQQKSGQAPALVIYDDTKRPSGIPERFSGSSSGTMATLTINGAQVEDEADYYCYTTGSSVSHVVFGGGTKLTVL
# notes: recombinant human IgG
# B10: EBV_c40 (antibody, V domains shown)
# VH: QVQMVQSGAEVKRPGDSVRVSCKASGYIFTNYHLHWVRQAPGQGLEWMGIVTPNGSRTNYAQKFKGRVIMSSEASTNTLYMDLSSLKSEDTAVYFCARARDLYGDSDFDYWGQGTPVMVSS
# VL: SYELSQPPSVSVSPGQTASVSCSGDSLGDKYVSWYQQRPGQSPVVVIYQDRKRPSGIPERFSGSNSGKAATLTISGAQAVDEATYFCQAWESSNVVFGGGTTLTVL
# notes: recombinant human IgG
# B11: EBV_c40 with light chain D51K (antibody, V domains shown)
# VH: B10 VH
# VL: B10 VL with D50K
# notes: as for B2
# B12: EBV_c120 (antibody, V domains shown)
# VH: QVHLVQSGAEVKKPGASVKVSCKASGFAFTTYDINWVRQAAGQGLEWMGWMNPNSGNRGYAQKFQGRVTMTRNTSITTAYMELTSLTSEDTAVYYCARAYCNSNRCSPELFDPWGQGTQVTVSS
# VL: QSVLTQPPSVSAAPGQMVTISCSGSSSNIGNNFVSWYQQLPGTVPKYVIYDNNKRPSGIPERFSGSRSGTSATLGITGLQTGDEADYYCATWDSSLRGVVFGGGTKLTVL
# notes: recombinant human IgG; source: Expi293 or ExpiCHO, recombinant; filtered culture supernatant
# B13: EBV_c10 (antibody, V domains shown)
# VH: B12 VH with K23Q, Q43H, S88P, E89D, Y100F
# VL: B12 VL with S25G, L40I, N53D, G75V, S94N
# notes: recombinant human IgG
# B14: flu_c645 (antibody, V domains shown)
# VH: EVQLVQSGAEVKKPGESLKISCQASGYIFVNYWVGWLRQAPGKGLEWIGIIFPGDSDTTYSPSFQGQVTISAAKSINTVYLQWNSLKASDTAMYYCARAPVPGMSGWFDPWGQGTLVTVSS
# VL: DIVMTQSPDSLAVSLGGGATIKCKSSHSLLYSSNSKNYLSWYQQKPGQPPKLLFYWASTRESGVPDRFSGSGSGTDFTLTIDSLQAEDLAVYFCQQYFYTPYTFGQGTKLEIN
# B15: flu_c504 (antibody, V domains shown)
# VH: EVQLVQSGAEVKKPGESLKISCKASGYTFTRYWIAWVRQMPGKGLEWMGIIYPGDSDTRYNPSFQGQVTISADKSINTAYLQWSSLKASDTAIYYCAMCVGSPTCYGWFDPWGQGTLVTVSS
# VL: DIVMTQSPDSLAVSLGERATINCKSSLNILYSSNKKNYLAWYQQKPGQPPKLLIYWASTRESGVPDRFSGSGSGTDFTLTISSLQAEDVAVYYCQQYHSIPYTFGQGSKLEIK
# B16: EBV_c101 (antibody, V domains shown)
# VH: QVHLVQSGTEVKKPGASVKVSCKASGYTFIDYFIHWVRQAPGQGLEWMGIINPGGGSTSYAQKFRGRVTVTRDASTSTVYLELRSLRSDDSAVYYCARGTAVSTNLGLLFDLWGQGTLVSVSS
# VL: SYELTQPPSVSVSPGQTARITCSGDDLPKNYAYWYQQKSGQAPTLVINEDNKRPSGIPERFSGSSSGTMATLTISGAQVEDEADYYCFSADSSGTHSVFGGGTKVTVL
# notes: recombinant human IgG
# B17: EBV_c3 (antibody, V domains shown)
# VH: QVHLVQSGAEVKKSGASVKVSCKASGFTFTNHDINWVRQAPGQGLEWMGWINPNSGNTGFAQKFRGRVTLTRNNSITTAYMELRGLTYEDTAIYYCARAFCNSDRCSPELFDPWGQGTLVTVSS
# VL: QSVLTQPPSVSADPGQRVTISCSGSSSNIGNSYVSWYQQLPGTAPRFLIYDNNKRTSGIPDRFSGSKSGTSATLAITGLQTGDEADYYCATWDTSLRGVVFGGGTKLTVL
# notes: as for B12
# B18: EBV_c138 (antibody, V domains shown)
# VH: B17 VH with T87K
# VL: B17 VL with Q16H, S25T, S32N, A75T, T77S
# notes: recombinant human IgG
# B19: EBV_c127 (antibody, V domains shown)
# VH: B17 VH with S14F, K19Q, T87R
# VL: B17 VL with S25T, N31K, S32N, Y33F, L40F, R46K, T56A, T73I, T94N, V100L
# notes: recombinant human IgG
# B20: EBV_c77 (antibody, V domains shown)
# VH: B17 VH with K13R, R65Q, T87R
# VL: B17 VL with S25T, S26G, S32N
# notes: recombinant human IgG
# B21: EBV_c98 (antibody, V domains shown)
# VH: QVQLVESGGGVVQPGRSLRLSCAASGITLSSYGMHWVRQAPGKGLEWVAVISYDGSKKDYGDSVKGRFTISRDNFKNTLYLQMSSLRAEDTAVYYCAKDTIFDGMDVWGQGTTVTVSS
# VL: DVVMTQSPLSLPGTLGQPASISCRSSQSLVYSDGNTYLNWFQQRPGQSPRRLIYQVSNRDSGVPDRFSGSGSGTDFTLTISKVEAEDVGVYYCMQSTHWPLTFGGGTKVEIK
# notes: recombinant human IgG
# B22: EBV_c186 (antibody, V domains shown)
# VH: QVHLVQSGTEVRKPGASVKISCETSGFNFSDYYVHWVRQAPGQGLEWMGIINAGGGSTSYAQRFRGRVTVTRDTSTRSVYMELRSLAPNDTAVYYCTRDRDQRLLFDYWGQGSLLIVSS
# VL: SSELTQPPSVSVSPGQTARITCSGDALPKNYAYWYQQKSGQAPVLVIYEDNKRPSGIPERFSGSSSGTTATLTISGAQMEDEGDYYCYSKDRFGGGTKVTVL
# notes: recombinant human IgG
# B23: EBV_c83 (antibody, V domains shown)
# VH: QEQLVQSGTAVKKPGASVKVSCKTSRDTFTIYYIHWVRQAPGQGLEWMGIINPSGGNTSHAQKFQGRVTMTSDASTSTVYMELSSLRFEDTATYYCARVGYNWGSHSVSSPGAMDVWGQGTTVSVSS
# VL: SIELTQPSSVSVSPGQTATITCSGDVLPKQYAYWYQQKPGRAPMLVVYKDSERPSGISERFSGSSAGTAVTLTISAVQAEDEADYYCQSADTGGTYVIFGGGTKLTVL
# notes: recombinant human IgG
# What was measured:
# [1] = molecular target: T1, EBV minimal peptide PPSTSSKLRPRWTFT …; test: far-Western, overlay or dot blot; conditions: one partner purified
# [2] = molecular target: T2, influenza A minimal peptide …
binder,measurement,setting,value
B1,binding result,[1],binds
B2,binding result,[1],binds
B3,binding result,[1],binds
B4,binding result,[1],binds
B5,binding result,[1],binds
B6,binding result,[1],binds
B7,binding result,[1],binds
B8,binding result,[1],binds
B9,binding result,[1],binds
B10,binding result,[1],binds
B11,binding result,[1],binds
B12,binding result,[1],binds
B13,binding result,[1],binds
B14,binding result,[2],binds
B15,binding result,[2],binds
B16,binding result,[1],binds
B17,binding result,[1],binds
B18,binding result,[1],binds
B19,binding result,[1],binds
B20,binding result,[1],binds
B21,binding result,[1],binds
B22,binding result,[1],binds
B23,binding result,[1],binds
